B1: TPR t1 (parent)
chain: GACCAAUCUGCCCUCAGAGCUCGAGAACAUCUUCGGAUGCAGAGGAGGCAGGCUUCGGUGGCGCGAUAGCGCCAACGUCCUCAACCUCCAAUGCAUCCCACCACAUGAUGAUGCCUGAAGAGCCUUGGUUUUUUG

Variants of: B1
Experiment: polymerase ribozyme fitness, log enrichment relative to wild type (log ratio); higher = more active; in vitro selection for triplet polymerase activity
How it was run: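 One round of in vitro selection, in triplicate, was applied to PCR-built, transcribed mutant libraries of each subunit of a heterodimeric triplet polymerase ribozyme. The steps were annealing with a biotinylated primer, partner subunit and triplets, incubation frozen at −7 °C, gel excision of extended constructs, streptavidin-bead capture and RT-PCR. Fitness is the logarithm, base 2, of genotype enrichment over wild-type enrichment from inverse-variance-weighted replicate averages of Illumina-sequenced inputs and outputs, keeping genotypes with ≥10 input reads and ≥1 read per output.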

| Variant | polymerase ribozyme fitness (log ratio) |
| --- | --- |
| GACCAAUCUGCCCUCAGAGCUCGAGAACAUCUUCGGAUGCAGAGGAGGCAGGCUUCGGUGGGGCGAUAGCGCCAACGUCCUCAACCUCUAAUGCAUCCCACCACAUGAUGCUGCCUGAAGAGCCUCGGCUUUUUG [C62G C89U A111C U126C U129C] | -4.44 |
| GACCAAUCUGCCCUCAGAGCUCGAGAACAUCUUCGGAUGCAGAGGAGGCAGGCUUCGGUGGAGCGAUAGCGCCAACGUCCUCAACCUCCAAUGCAUCCCACCACAUGAUGAUGCCUGAAGAGCCUUGGAUUUUUG [C62A U129A] | -2.21 |
| GACCAAUCUGCCCUCAGAGCUCGAGAACAUCUUCGGAUGCAGAGGAGGCAGGCUUCGGUGGAGCGAUAGCGCCAACGCCCUCAACCUCCAAUGCAUCCCACCACAUGAUGAUGCCUGAAGCGCCUUGGUUUUUUG [C62A U78C A121C] | 0.55 |
| GACCAAUCUGCCCUCAGAGCUCGAGAACAUCUUCGGAUGCAGAGGAGGCAGGCUUCGGUGGAGCGAUAGCGCCAACGUCCUCAACAUCCAAUGCAUCCCACCACAUGAUGAUGCCUGAAGAGCCUUGGUUUUUUG [C62A C86A] | -2.26 |
| GACCAAUCUGCCCUCAGAGCUCGAGAACAUCUUCGGAUGCAGAGGAGGCAGGCUUCGGUGGGGCGAUAGCGCCACCGUCCUCAACCUCCAAUGCAUCCCACCACAUGAUGAUGCCUGUAGAGACUUGGUUUUUUU [C62G A75C A118U C123A G135U] | -2.3 |
| GACCAAUCUGCCCUCAGAGCUCGAGAACAUCUUCGGAUGCAGAGGAGGCAGGCUUCGGUGGAGCGAUAGCGCCAACGUCCUCAACCUCCAAUGCAUCCCACCACAUGAUGAUGCCUGAAGAGCCUGGGUUUUUUG [C62A U126G] | -2.4 |
| GACCAAUCUGCCCUCAGAGCUCGAGAACAUCUUCGGAUGCAGAGGAGGCAGGCUUCGGUGGAGCGAUAGCGCCAACGUCCUAAACCUCCAAUGCAUCCCACCACAUGAUGAUGCCUGAAGAGCCUUGGUUUUUUG [C62A C82A] | -0.246 |
| GACCAAUCUGCCCUCAGAGCUCGAGAACAUCUUCGGAUGCAGAGGAGGCAGGCUUCGGUGGAGCGAUAGCGCCAACGUCCUCAACCUCCAAUGCAUCCCAGCACAUGAUGAUGCCUGAAGAGCCUUGGUUUUUUG [C62A C101G] | -2.98 |
| GACCAAUCUGCCCUCAGAGCUCGAGAACAUCUUCGGAUGCAGAGGAGGCAGGCUUCGGUGGAGCGAUAGCGCCAACGUCCUCAACCUCCAAUGCAACCCACCACAUGAUGAUGCCUGAAGAGCCUUGGUUUUUUG [C62A U96A] | -1.77 |
| GACCAAUCUGCCCUCAGAGCUCGAGAACAUCUUCGGAUGCAGAGGAGGCAGGCUUCGGUGGAGCGAUAGCGCCAACGUCCUCAACCUCAAAUGCAUCCCACCACAUGAUGAUGCCUGAAGAGCCUUGGUUUUUUG [C62A C89A] | -3.57 |
| GACCAAUCUGCCCUCAGAGCUCGAGAACAUCUUCGGAUGCAGAGGAGGCAGGCUUCGGUGGAGCGAUAGCGCCAACGUCCUAAACCUCCAAUGCAUCCCACCACAUGAUGAUGCCUGAAGGGCCUUGGUUUUUUG [C62A C82A A121G] | 1.58 |
| GACCAAUCUGCCCUCAGAGCUCGAGAACAUCUUCGGAUGCAGAGGAGGCAGGCUUCGGUGGAGCGAUAGCGCCAACGUCCUUAACCUCCAGUGCAUCCCAGCACAUGAUGAUGCCUGAAGAGUCUUGUUUUUUUG [C62A C82U A91G C101G C123U G128U] | -3.86 |
| GACCAAUCUGCCCUCAGAGCUCGAGAACAUCUUCGGAUGCAGAGGAGGCAGGCUUCGGUGGAGCGAUAGCGCCAACGUCCUCAACCUCCAAUGCAUCCCACAACAUGAUGAUGCCUGAAGAGCCUUGGUUUUUUG [C62A C102A] | -3.33 |
| GACCAAUCUGCCCUCAGAGCUCGAGAACAUCUUCGGAUGCAGAGGAGGCAGGCUUCGGUGGAGCGAUAGCGCCAACGUCCUCAACCACCAAUGCAUCCCCCCACAUGAUGAUGCAUGAAGAGCCUUGGUUUUUUG [C62A U87A A100C C115A] | -2.71 |
| GACCAAUCUGCCCUCAGAGCUCGAGAACAUCUUCGGAUGCAGAGGAGGCAGGCUUCGGUGGAGCGAUAGCGCCAACGUCCUCAACCUCCAAUGCAUCCCACCACAUGAUGAAGCCUGAAGAGGCUUGGUUUUUUG [C62A U112A C123G] | -1.31 |
| GACCAAUCUGCCCUCAGAGCUCGAGAACAUCUUCGGAUGCAGAGGAGGCAGGCUUCGGUGGAGCGAUAGCGCCAACGUCCUGAACCUCCAAUGCAUCCCACCACAUGAUGAUGCCUAAAGAGCCUUGGUUUUUUG [C62A C82G G117A] | -3.75 |
| GACCAAUCUGCCCUCAGAGCUCGAGAACAUCUUCGGAUGCAGAGGAGGCAGGCUUCGGUGGAGCGAUAGCGCCAACAUCCUCAACCUCCAAUGCAUCCCACCACAUGAUGAUGCCUGAAGAGCCUUGGUUUUUUG [C62A G77A] | -2.78 |
| GACCAAUCUGCCCUCAGAGCUCGAGAACAUCUUCGGAUGCAGAGGAGGCAGGCUUCGGUGGAGCGAUAGCGCCAACUUCCUCAACCUCCAAUGCAUCCCACCACAUGAUGAUGCCUGAAGAGCCUUGGUUUUUUG [C62A G77U] | -1.77 |
| GACCAAUCUGCCCUCAGAGCUCGAGAACAUCUUCGGAUGCAGAGGAGGCAGGCUUCGGUGGAGCGAUAGCGCCAACGUACUCAACCUCCAAUGCAUCCCACCACAUGAUGAUGCCUGAAGAGCCUUGGUUUUUUG [C62A C79A] | -3.89 |
| GACCAAUCUGCCCUCAGAGCUCGAGAACAUCUUCGGAUGCAGAGGAGGCAGGCUUCGGUGGAGCGAUAGCGCCAACGUUCUCAACCUCCAAUGCAUCCCACCACAUGAUGAUGCCUGAAGAGCCUUGGUUUUUUG [C62A C79U] | -0.345 |
| GACCAAUCUGCCCUCAGAGCUCGAGAACAUCUUCGGAUGCAGAGGAGGCAGGCUUCGGUGGGGCGAUAGCGCCAACGUCCUCAACCUCCAAUGCAUCCCCCCACAUGAUGAUGCCUGAAGAGCCUUGGUUUUUUG [C62G A100C] | -3.47 |

| Variant | polymerase ribozyme fitness (log ratio) |
| --- | --- |
| GACCAAUCUGCCCUCAGAGCUCGAGAACAUCUUCGGAUGCAGAGGAGGCAGGCUUCGGUGGAGCGAUAGCGCCAACGUCCUCAACCUCCAAUGCAUCCUACCACAUGAUGAUGCCUGAAGAGCAUUGGUUUUUUG [C62A C99U C124A] | -4.32 |
| GACCAAUCUGCCCUCAGAGCUCGAGAACAUCUUCGGAUGCAGAGGAGGCAGGCUUCGGUGGAGCGAUAGCGCCAACGUCCUCAACCUCCAAUGCAUCCCACCACAUGAUGAUGCCUGAAGAGCCUUGAUUUUUUG [C62A G128A] | -2.62 |
| GACCAAUCUGCCCUCAGAGCUCGAGAACAUCUUCGGAUGCAGAGGAGGCAGGCUUCGGUGGAGCGAUAGCGCCAACGUCCUCAACCUCCAAUGCAUCCCACCACAUGAUGAUGCCUGAAAAGCCUUGGUUUUAUG [C62A G120A U133A] | -0.165 |
| GACCAAUCUGCCCUCAGAGCUCGAGAACAUCUUCGGAUGCAGAGGAGGCAGGCUUCGGUGGGGCGAUAGCGCCAACGUCCUCAACAUCCAAUGCAUCCCACCACAUGAUGAUGCCUGAAGAGCCUUGGUUUUUUG [C62G C86A] | -3.17 |
| GACCAAUCUGCCCUCAGAGCUCGAGAACAUCUUCGGAUGCAGAGGAGGCAGGCUUCGGUGGAGCGAUAGCGCCAACGUCCUCAACCUCCAAUGCAUCCCACCACAUGAUGAUGCCUCAAGAGCCUUGGUUUUAUG [C62A G117C U133A] | -5.95 |
| GACCAAUCUGCCCUCAGAGCUCGAGAACAUCUUCGGAUGCAGAGGAGGCAGGCUUCGGUGGGGCGAUAGCGCCAACGUCCUCAACCUCCUAUGCAUCCCACCACAUGAUGAUGCCUGAAGAGCCUUGGUUUUUUG [C62G A90U] | -3.82 |
| GACCAAUCUGCCCUCAGAGCUCGAGAACAUCUUCGGAUGCAGAGGAGGCAGGCUUCGGUGGGGCGAUAGCGCCAACGUCUUCAACCUCCAAUGCAUCCCACCACAUGAUGAUGCCUGAAGAGCCUUGGUUUUUUG [C62G C80U] | -2.03 |
| GACCAAUCUGCCCUCAGAGCUCGAGAACAUCUUCGGAUGCAGAGGAGGCAGGCUUCGGUGGAGCGAUAGCGCCAACGUCCUCAACCUCCAAUGCAUCCCAGCAUAUGAUGAUGCCUGAAGAGCCUUGGUUUUUUG [C62A C101G C104U] | -2.15 |
| GACCAAUCUGCCCUCAGAGCUCGAGAACAUCUUCGGAUGCAGAGGAGGCAGGCUUCGGUGGAGCGAUAGCGCCAACGUCCUCAACCUCCAAUGCAUCCCACCACAUGAUGAUGCCUGAAGAGCCUUGGUGUUAUG [C62A U130G U133A] | -1.17 |
| GACCAAUCUGCCCUCAGAGCUCGAGAACAUCUUCGGAUGCAGAGGAGGCAGGCUUCGGUGGAGCGAUAGCGCCAACGUCCUCAACCUCCAAUGCAUCCCACCACAUGAUGAUCCCUGAAGAGCCUUGGUUUUUUG [C62A G113C] | -3.31 |
| GACCAAUCUGCCCUCAGAGCUCGAGAACAUCUUCGGAUGCAGAGGAGGCAGGCUUCGGUGGAGCGAUAGCGCCAACGUCCUCAACCUCCAAUGCAUCCCACCACAUGAUGAUGCCUGAAGAGCCUUAGUUUUUUG [C62A G127A] | -2.22 |
| GACCAAUCUGCCCUCAGAGCUCGAGAACAUCUUCGGAUGCAGAGGAGGCAGGCUUCGGUGGAGCGAUAGCGCCAACGUCCUCAACCUCCAAUGCAUCCCACCACAUGAUGAUGCCUGAAGAGCCUUCGUUUUUUG [C62A G127C] | -1.29 |
| GACCAAUCUGCCCUCAGAGCUCGAGAACAUCUUCGGAUGCAGAGGAGGCAGGCUUCGGUGGAGCGAUAGCGCCAACGUCCUCAACCUCCAAUGCAUCCCACCACAUGAUGAUGCCUGAAGAGCCUUGGUGUUUUG [C62A U130G] | -1.46 |
| GACCAAUCUGCCCUCAGAGCUCGAGAACAUCUUCGGAUGCAGAGGAGGCAGGCUUCGGUGGAGCGAUAGCGCCAACGUCCUCAACCUCCAAUGCAGCCCACCACAUGAUGAUCCCUGAAGAGGCUUGGUUUUAUG [C62A U96G G113C C123G U133A] | -3.2 |
| GACCAAUCUGCCCUCAGAGCUCGAGAACAUCUUCGGAUGCAGAGGAGGCAGGCUUCGGUGGGGCGAUAGCGCCAACGUCCUCAACCUCCAAUGCGUCCCACCACAUGAUGAUGCCUGAAGAGCCUUGGUUUCUUG [C62G A95G U132C] | -1.55 |
| GACCAAUCUGCCCUCAGAGCUCGAGAACAUCUUCGGAUGCAGAGGAGGCAGGCUUCGGUGGAGCGAUAGCGCCAACGUCCUCAACCUCCAAUGCAUCUCACCACAUGAUGAUGCCUGAAGAGCCUUGGUUUUUUG [C62A C98U] | -2.2 |
| GACCAAUCUGCCCUCAGAGCUCGAGAACAUCUUCGGAUGCAGAGGAGGCAGGCUUCGGUGGGGCGAUAGCGCCAACGUCCUCAACCUCCUAUGCAUCCCACCACAUGAUGAAGCGUGAAGAGCUUUGGUUUUCUG [C62G A90U U112A C115G C124U U133C] | -5.24 |
| GACCAAUCUGCCCUCAGAGCUCGAGAACAUCUUCGGAUGCAGAGGAGGCAGGCUUCGGUGGAGCGAUAGCGCCAACGGCCUCAACCUCCAAUGCAUCCCACCACAUGAUGAUGCCUGAAGAGCCUUGGUUUUUUG [C62A U78G] | -2.46 |
| GACCAAUCUGCCCUCAGAGCUCGAGAACAUCUUCGGAUGCAGAGGAGGCAGGCUUCGGUGGGGCGAUAGCGUCAACGUCCUCAACCUCCAAUGCAUCCCACCACAUGAUGAUGCCUGAAGAGCCUUGGUUUUUUG [C62G C72U] | -2.53 |
| GACCAAUCUGCCCUCAGAGCUCGAGAACAUCUUCGGAUGCAGAGGAGGCAGGCUUCGGUGGAGCGAUAGCGCCAACGUCCUCAACCUCCAAUGCAUCCCACCACAUGAUGAUGCCUGAAGAGCCUUGGUUUUUUU [C62A G135U] | -1.52 |
| GACCAAUCUGCCCUCAGAGCUCGAGAACAUCUUCGGAUGCAGAGGAGGCAGGCUUCGGUGGAGCGAUAGCGCCAACGUCCUCAACCUCCAAUGCAUCCCACCACAUGAUGAUGCCUGAAGAGCCUUGGUUUUUUC [C62A G135C] | -0.579 |
